Assay results: publication PMC9633789 (Nature Communications, 2022)

Biological target: the molecule itself
Experiment: SEC; Superose 6 Increase 10/300 GL; 25 mM HEPES-KOH pH 8.0, 100 mM NaCl, 5 mM MgCl2, 1 mM DTT, 10% sucrose; step of the purification of His-p97

B1: His-p97 (recombinant Xenopus p97) (enzyme, UniProt P23787 1-805, looked up)
chain: MASGSDTKSDDLSTAILKQKSRPNRLIVDESINEDNSMVSLSQAKMDELQLFRGDTVLLKGKKRREAVCIVLSDDTCSDEKIRMNRVVRNNLRVRLGDVISIQPCPDVKYGKRVHVLPIDDTVEGITGNLFEVYLKPYFLEAYRPIRKGDIFLVRGGMRAVEFKVVETDPSPYCIVAPDTVIHCEGEPIKREDEEESLNEVGYDDIGGCRKQLAQIKEMVELPLRHPALFKAIGVKPPRGILLYGPPGTGKTLIARAVANETGAFFFLINGPEIMSKLAGESESNLRKAFEEAEKNAPAIIFIDELDAIAPKREKTHGEVERRIVSQLLTLMDGLKQRAHVIVMAATNRPNSIDPALRRFGRFDREVDIGIPDSTGRLEILQIHTKNMKLSDDVDLEQVANETHGHVGADLAALCSEAALQAIRKKMDLIDLEDETIDAEVMNSLAVTMDDFRWALSQSNPSALRETVVEVPQVTWEDIGGLEDVKRELQELVQYPVEHPDKFLKFGMTPSKGVLFYGPPGCGKTLLAKAIANECQANFISIKGPELLTMWFGESEANVREIFDKARQAAPCVLFFDELDSIAKARGGNIGDGGGAADRVINQILTEMDGMSIKKNVFIIGATNRPDIIDPAILRPGRLDQLIYIPLPDEKSRMAILKANLRKSPVAKDVDVDFLAKMTNGFSGADLTEICQRACKLAIRESIENEIRRERDRQTNPSAMEVEEDDPVPEIRRDHFEEAMRFARRSVSDNDIRKYEMFAQTLQQSRGFGSFRFPAGGQSGAGPSPGAGGGSGGGHFTEEDDDLYG
notes: p97, Xenopus; source: E. coli Rosetta 2 (DE3), purified (HisTrap HP, Superose 6 Increase)
  stoichiometry N: 6
